From US20130344077A1 (VET THERAPEUTICS, published 2013) come the findings set out here.

T1: human CD52 on human T-cell lymphoma HUT-78 cells (human, UniProt P31358 25-36)
T1 construct: whole, on cells; also called CAMPATH-1 antigen; CD52 positive lymphoma cells
T1 chain (looked up): GQNDTSQTSSPS

B1: VET106 VET217 anti-canine lymphoma antibody variant (mab 231 variable domains, canine lambda constant) (antibody)
light: DIQMNQSPSSLSASLGDTITITCHASQNINVWLSWYQQKPGNIPKLLIYKASNLHTGVPSRFSGSGSGTGFTLTISSLQPEDIATYYCQQGQSYPLTFGGGTKLEIKGQPKASPSVTLFPPSSEELGANKATLVCLISDFYPSGVTVAWKADGSPITQGVETTKPSKQSNNKYAASSYLSLTPDKWKSHSSFSCLVTHEGSTVEKKVAPAECS
heavy: EVKLVESGGGLVQPGGSLKLSCATSGFTFSDYYMYWVRQTPEKRLEWVAYISNGGGSTYYPDTVKGRFTISRDNAKNTLYLQMSRLKSEDTAMYYCARHGGYYAMDYWGQGTLVTVSSASTTAPSVFPLAPSCGSTSGSTVALACLVSGYFPEPVTVSWNSGSLTSGVHTFPSVLQSSGLYSLSSMVTVPSSRWPSETFTCNVAHPASKTKVDKPVPKRENGRVPRPPDCPKCPAPEMLGGPSVFIFPPKPKDTLLIARTPEVTCVVVDLDPEDPEVQISWFVDGKQMQTAKTQPREEQFNGTYRVVSVLPIGHQDWLKGKQFTCKVNNKALPSPIERTISKARGQAHQPSVYVLPPSREELSKNTVSLTCLIKDFFPPDIDVEWQSNGQQEPESKYRTTPPQLDEDGSYFLYSKLSVDKSRWQRGDTFICAVMHEALHNHYTQKSLSHSPGK
B2: VET107 VET217 anti-canine lymphoma antibody variant (mab 231 variable domains, canine kappa constant) (antibody)
light: DIQMNQSPSSLSASLGDTITITCHASQNINVWLSWYQQKPGNIPKLLIYKASNLHTGVPSRFSGSGSGTGFTLTISSLQPEDIATYYCQQGQSYPLTFGGGTKLEIKNDAQPAVYLFQPSPDQLHTGSASVVCLLNSFYPKDINVKWKVDGVIQDTGIQESVTEQDKDSTYSLSSTLTMSSTEYLSHELYSCEITHKSLPSTLIKSFQRSECQRVD
heavy: EVKLVESGGGLVQPGGSLKLSCATSGFTFSDYYMYWVRQTPEKRLEWVAYISNGGGSTYYPDTVKGRFTISRDNAKNTLYLQMSRLKSEDTAMYYCARHGGYYAMDYWGQGTLVTVSSASTTAPSVFPLAPSCGSTSGSTVALACLVSGYFPEPVTVSWNSGSLTSGVHTFPSVLQSSGLYSLSSMVTVPSSRWPSETFTCNVAHPASKTKVDKPVPKRENGRVPRPPDCPKCPAPEMLGGPSVFIFPPKPKDTLLIARTPEVTCVVVDLDPEDPEVQISWFVDGKQMQTAKTQPREEQFNGTYRVVSVLPIGHQDWLKGKQFTCKVNNKALPSPIERTISKARGQAHQPSVYVLPPSREELSKNTVSLTCLIKDFFPPDIDVEWQSNGQQEPESKYRTTPPQLDEDGSYFLYSKLSVDKSRWQRGDTFICAVMHEALHNHYTQKSLSHSPGK
B3: VET114 VET224 antibody variant (anti-CD52, canine FR4 in both chains) (antibody)
light: DIKMTQSPSFLSASVGDRVTLNCKASQNIDKYLNWYQQKLGESPKLLIYNTNNLQTGIPSRFSGSGSGTDFTLTISSLQPEDVATYFCLQHISRPRTFGGGTHLTVLGQPKASPSVTLFPPSSEELGANKATLVCLISDFYPSGVTVAWKADGSPITQGVETTKPSKQSNNKYAASSYLSLTPDKWKSHSSFSCLVTHEGSTVEKKVAPAECS
heavy: EVKLLESGGGLVQPGGSMRLSCAGSGFTFTDFYMNWIRQPAGKAPEWLGFIRDKAKGYTTEYNPSVKGRFTISRDNTQNMLYLQMNTLRAEDTATYYCAREGHTAAPFDYWGQGTLVTVSSASTTAPSVFPLAPSCGSTSGSTVALACLVSGYFPEPVTVSWNSGSLTSGVHTFPSVLQSSGLYSLSSMVTVPSSRWPSETFTCNVAHPASKTKVDKPVPKRENGRVPRPPDCPKCPAPEMLGGPSVFIFPPKPKDTLLIARTPEVTCVVVDLDPEDPEVQISWFVDGKQMQTAKTQPREEQFNGTYRVVSVLPIGHQDWLKGKQFTCKVNNKALPSPIERTISKARGQAHQPSVYVLPPSREELSKNTVSLTCLIKDFFPPDIDVEWQSNGQQEPESKYRTTPPQLDEDGSYFLYSKLSVDKSRWQRGDTFICAVMHEALHNHYTQKSLSHSPGK
notes: Constant domains are added as separate pieces because the printed entries are variable domains only
B4: VET112 VET223 antibody variant (anti-CD52, canine FR1 and FR4 in both chains) (antibody)
light: QSVLTQPASVSGSLGQRVTISCKASQNIDKYLNWYQQKLGESPKLLIYNTNNLQTGIPSRFSGSGSGTDFTLTISSLQPEDVATYFCLQHISRPRTFGGGTHLTVGQPKASPSVTLFPPSSEELGANKATLVCLISDFYPSGVTVAWKADGSPITQGVETTKPSKQSNNKYAASSYLSLTPDKWKSHSSFSCLVTHEGSTVEKKVAPAECS
heavy: EVQLVESGGDLVKPGGSLRLSCAGSGFTFTDFYMNWIRQPAGKAPEWLGFIRDKAKGYTTEYNPSVKGRFTISRDNTQNMLYLQMNTLRAEDTATYYCAREGHTAAPFDYWGQGTLVTVSSASTTAPSVFPLAPSCGSTSGSTVALACLVSGYFPEPVTVSWNSGSLTSGVHTFPSVLQSSGLYSLSSMVTVPSSRWPSETFTCNVAHPASKTKVDKPVPKRENGRVPRPPDCPKCPAPEMLGGPSVFIFPPKPKDTLLIARTPEVTCVVVDLDPEDPEVQISWFVDGKQMQTAKTQPREEQFNGTYRVVSVLPIGHQDWLKGKQFTCKVNNKALPSPIERTISKARGQAHQPSVYVLPPSREELSKNTVSLTCLIKDFFPPDIDVEWQSNGQQEPESKYRTTPPQLDEDGSYFLYSKLSVDKSRWQRGDTFICAVMHEALHNHYTQKSLSHSPGK
notes: as for B3
B5: VET111 VET222 chimeric antibody (rat anti-human CD52 variable domains on canine constant domains) (antibody)
light: DIKMTQSPSFLSASVGDRVTLNCKASQNIDKYLNWYQQKLGESPKLLIYNTNNLQTGIPSRFSGSGSGTDFTLTISSLQPEDVATYFCLQHISRPRTFGTGTKLELKGQPKASPSVTLFPPSSEELGANKATLVCLISDFYPSGVTVAWKADGSPITQGVETTKPSKQSNNKYAASSYLSLTPDKWKSHSSFSCLVTHEGSTVEKKVAPAECS
heavy: EVKLLESGGGLVQPGGSMRLSCAGSGFTFTDFYMNWIRQPAGKAPEWLGFIRDKAKGYTTEYNPSVKGRFTISRDNTQNMLYLQMNTLRAEDTATYYCAREGHTAAPFDYWGQGVMVTVSSASTTAPSVFPLAPSCGSTSGSTVALACLVSGYFPEPVTVSWNSGSLTSGVHTFPSVLQSSGLYSLSSMVTVPSSRWPSETFTCNVAHPASKTKVDKPVPKRENGRVPRPPDCPKCPAPEMLGGPSVFIFPPKPKDTLLIARTPEVTCVVVDLDPEDPEVQISWFVDGKQMQTAKTQPREEQFNGTYRVVSVLPIGHQDWLKGKQFTCKVNNKALPSPIERTISKARGQAHQPSVYVLPPSREELSKNTVSLTCLIKDFFPPDIDVEWQSNGQQEPESKYRTTPPQLDEDGSYFLYSKLSVDKSRWQRGDTFICAVMHEALHNHYTQKSLSHSPGK
notes: Expressed in 293F cells and used as supernatant or protein A purified
B6: VET114 VET223 antibody variant (anti-CD52) (antibody)
light: DIKMTQSPSFLSASVGDRVTLNCKASQNIDKYLNWYQQKLGESPKLLIYNTNNLQTGIPSRFSGSGSGTDFTLTISSLQPEDVATYFCLQHISRPRTFGGGTHLTVLGQPKASPSVTLFPPSSEELGANKATLVCLISDFYPSGVTVAWKADGSPITQGVETTKPSKQSNNKYAASSYLSLTPDKWKSHSSFSCLVTHEGSTVEKKVAPAECS
heavy: EVQLVESGGDLVKPGGSLRLSCAGSGFTFTDFYMNWIRQPAGKAPEWLGFIRDKAKGYTTEYNPSVKGRFTISRDNTQNMLYLQMNTLRAEDTATYYCAREGHTAAPFDYWGQGTLVTVSSASTTAPSVFPLAPSCGSTSGSTVALACLVSGYFPEPVTVSWNSGSLTSGVHTFPSVLQSSGLYSLSSMVTVPSSRWPSETFTCNVAHPASKTKVDKPVPKRENGRVPRPPDCPKCPAPEMLGGPSVFIFPPKPKDTLLIARTPEVTCVVVDLDPEDPEVQISWFVDGKQMQTAKTQPREEQFNGTYRVVSVLPIGHQDWLKGKQFTCKVNNKALPSPIERTISKARGQAHQPSVYVLPPSREELSKNTVSLTCLIKDFFPPDIDVEWQSNGQQEPESKYRTTPPQLDEDGSYFLYSKLSVDKSRWQRGDTFICAVMHEALHNHYTQKSLSHSPGK
notes: as for B3
B7: VET112 VET224 antibody variant (anti-CD52) (antibody)
light: QSVLTQPASVSGSLGQRVTISCKASQNIDKYLNWYQQKLGESPKLLIYNTNNLQTGIPSRFSGSGSGTDFTLTISSLQPEDVATYFCLQHISRPRTFGGGTHLTVGQPKASPSVTLFPPSSEELGANKATLVCLISDFYPSGVTVAWKADGSPITQGVETTKPSKQSNNKYAASSYLSLTPDKWKSHSSFSCLVTHEGSTVEKKVAPAECS
heavy: EVKLLESGGGLVQPGGSMRLSCAGSGFTFTDFYMNWIRQPAGKAPEWLGFIRDKAKGYTTEYNPSVKGRFTISRDNTQNMLYLQMNTLRAEDTATYYCAREGHTAAPFDYWGQGTLVTVSSASTTAPSVFPLAPSCGSTSGSTVALACLVSGYFPEPVTVSWNSGSLTSGVHTFPSVLQSSGLYSLSSMVTVPSSRWPSETFTCNVAHPASKTKVDKPVPKRENGRVPRPPDCPKCPAPEMLGGPSVFIFPPKPKDTLLIARTPEVTCVVVDLDPEDPEVQISWFVDGKQMQTAKTQPREEQFNGTYRVVSVLPIGHQDWLKGKQFTCKVNNKALPSPIERTISKARGQAHQPSVYVLPPSREELSKNTVSLTCLIKDFFPPDIDVEWQSNGQQEPESKYRTTPPQLDEDGSYFLYSKLSVDKSRWQRGDTFICAVMHEALHNHYTQKSLSHSPGK
notes: as for B3

The first assay addresses target antigen of mab 231 on canine lymphoma cells (canine). Put plainly: FACS on canine lymphoma cells positive for the mab 231 antigen, FITC anti-dog IgG secondary.
The molecule B1 had a Binding (%) of 30.3%.
On the same count and under the same terms, the result for B2 reads 20.8%.

The target of another assay is T1, human CD52 on human T-cell lymphoma …. Put plainly: FACS on HUT-78 cells, about 2 ug primary antibody, FITC goat anti-dog IgG secondary. Here is the method:
The binding of the antibody variants of the present invention was assessed using a fluorescence-activated cell sorter (FACS). In the present example, the antibody variants were incubated with the CD52 positive cells and the amount of bound antibody was assessed following incubation with a fluorescent-labeled reporter reagent. The reporter was thereafter measured by FACS.
Briefly, for each assay, one million cells of the human T-cell lymphoma HUT-78 cells were resuspended in FACS buffer (PBS+2% FBS). About 2 ug of the primary antibody were added to the cells and the samples were incubated at 4° C. for 1 hour. The primary antibody was provided as supernatants from transfected cells with recombinant antibody constructs or from purified antibody preparation. The rat anti-human CD52 mAb (Serotec) was added to the cells as a control. One ml of FACS buffer was added and cells were spin down for 3 min at 800×g in Eppendorf microcentrifuge. The cells were washed with 1 ml FACS buffer and spin down again. The secondary antibodies such as fluorescein-isothiocynate (FITC) conjugated goat anti-rat (Jackson ImmunoResearch), or the FITC-conjugated goat anti-dog IgG (H+L) (Bethyl Laboratories) were added in 100 μl of FACS buffer supplemented with 1% BSA to appropriate tubes and the tubes were incubated at 4° C. for 30 minutes. The wash steps were repeated. The cells were then resuspended in 500 μl FACS buffer and transferred into 12×75 mm polystyrene test tubes. The cells were analyzed by FACS with a FacScan cytometer using the CellQuest software (Becton-Dickenson). Several controls were utilized to determine the background fluorescence: (i) one tube of cells was incubated with the FITC-conjugated secondary antibody without the primary antibody, (ii) one tube of cells was incubated with PBS only, and (iii) one tube was incubated with the primary antibody without the FITC-conjugated secondary antibody.
For B3, the “Binding (%)” value amounted to 47.8%.
Still for that read-out and setting: under B4 stands 24.4%; under B5, 51.4%; under B6, 40.1%.
Same read-out and setting: under B7 stands 30.6%.
